Results published in US20160074509A1.

Molecular target: OVA323-339 in the context of MHC class II (I-A^b) (mouse; chicken) (UniProt P14434)
Assay: cell-based or functional assay

proliferation of CFSE-labeled OT-II cells transferred into the footpad one week after immunization with OVA-KFE8D nanofibers (shift in CFSE intensity) (% of transferred cells): 60
proliferation of adoptively transferred CFSE-labeled OT-II cells in mice immunized with OVA-Q11 or OVA in CFA (shift in CFSE intensity) (% of transferred cells): 95
Sequence: T cell receptor of OT-II transgenic CD4+ T cells (TCR)
